Common to all, as to test: dried collagen assay
Experiment [1] has as its target human collagen type I (acid soluble, extracted from placenta, Sigma C7774) (human) (UniProt P02452).
Experiment [2] has as its target T1, human collagen type I (acid soluble, extracted from placenta, Sigma C7774) (human, UniProt P02452 162-1218; P08123 80-1119).
T1 construct: gelled and dried as a fibril film in the assay; also called dried human collagen; h-Collagen
As for the experimental part: An additional 90 μL is reserved in a HPLC glass vial as a measure of the total concentration.

In experiment [3] the target is rat collagen (acid soluble, type I, rat tail, Upstate 08-115) (rat) (UniProt P02454).
Sequence of rat collagen (acid soluble, type I, rat tail, Upstate 08-115) (rat) (P02454 152-1207 limits assumed, chain 1 of 2): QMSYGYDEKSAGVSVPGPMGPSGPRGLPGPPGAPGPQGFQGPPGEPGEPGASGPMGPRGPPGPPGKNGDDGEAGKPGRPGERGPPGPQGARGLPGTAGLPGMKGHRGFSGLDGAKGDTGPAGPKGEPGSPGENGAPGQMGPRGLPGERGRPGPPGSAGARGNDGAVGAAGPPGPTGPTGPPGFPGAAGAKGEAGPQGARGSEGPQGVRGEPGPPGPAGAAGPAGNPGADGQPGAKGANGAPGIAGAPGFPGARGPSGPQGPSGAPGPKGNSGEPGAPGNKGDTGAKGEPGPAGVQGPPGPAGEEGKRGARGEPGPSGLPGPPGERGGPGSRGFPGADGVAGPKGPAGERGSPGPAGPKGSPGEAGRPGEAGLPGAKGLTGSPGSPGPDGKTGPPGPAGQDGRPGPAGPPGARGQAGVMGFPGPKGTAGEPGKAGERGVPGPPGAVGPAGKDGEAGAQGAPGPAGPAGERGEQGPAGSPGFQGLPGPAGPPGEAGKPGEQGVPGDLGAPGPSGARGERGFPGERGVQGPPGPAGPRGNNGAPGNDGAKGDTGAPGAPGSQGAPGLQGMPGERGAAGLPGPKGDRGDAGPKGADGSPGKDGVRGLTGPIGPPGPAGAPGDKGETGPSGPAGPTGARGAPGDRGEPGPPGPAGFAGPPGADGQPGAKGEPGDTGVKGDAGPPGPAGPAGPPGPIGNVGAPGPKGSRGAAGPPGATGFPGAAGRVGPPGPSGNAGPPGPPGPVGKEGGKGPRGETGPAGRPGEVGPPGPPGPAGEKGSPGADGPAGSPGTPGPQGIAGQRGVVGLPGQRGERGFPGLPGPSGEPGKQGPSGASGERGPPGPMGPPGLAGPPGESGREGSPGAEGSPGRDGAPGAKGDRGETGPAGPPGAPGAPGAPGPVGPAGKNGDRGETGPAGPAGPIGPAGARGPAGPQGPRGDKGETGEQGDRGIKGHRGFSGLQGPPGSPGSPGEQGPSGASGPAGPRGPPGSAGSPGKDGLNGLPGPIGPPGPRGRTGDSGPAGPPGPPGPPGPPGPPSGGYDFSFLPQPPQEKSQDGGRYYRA
Sequence of rat collagen (acid soluble, type I, rat tail, Upstate 08-115) (rat) (P02466 86-1125 limits assumed, chain 2 of 2, further chain): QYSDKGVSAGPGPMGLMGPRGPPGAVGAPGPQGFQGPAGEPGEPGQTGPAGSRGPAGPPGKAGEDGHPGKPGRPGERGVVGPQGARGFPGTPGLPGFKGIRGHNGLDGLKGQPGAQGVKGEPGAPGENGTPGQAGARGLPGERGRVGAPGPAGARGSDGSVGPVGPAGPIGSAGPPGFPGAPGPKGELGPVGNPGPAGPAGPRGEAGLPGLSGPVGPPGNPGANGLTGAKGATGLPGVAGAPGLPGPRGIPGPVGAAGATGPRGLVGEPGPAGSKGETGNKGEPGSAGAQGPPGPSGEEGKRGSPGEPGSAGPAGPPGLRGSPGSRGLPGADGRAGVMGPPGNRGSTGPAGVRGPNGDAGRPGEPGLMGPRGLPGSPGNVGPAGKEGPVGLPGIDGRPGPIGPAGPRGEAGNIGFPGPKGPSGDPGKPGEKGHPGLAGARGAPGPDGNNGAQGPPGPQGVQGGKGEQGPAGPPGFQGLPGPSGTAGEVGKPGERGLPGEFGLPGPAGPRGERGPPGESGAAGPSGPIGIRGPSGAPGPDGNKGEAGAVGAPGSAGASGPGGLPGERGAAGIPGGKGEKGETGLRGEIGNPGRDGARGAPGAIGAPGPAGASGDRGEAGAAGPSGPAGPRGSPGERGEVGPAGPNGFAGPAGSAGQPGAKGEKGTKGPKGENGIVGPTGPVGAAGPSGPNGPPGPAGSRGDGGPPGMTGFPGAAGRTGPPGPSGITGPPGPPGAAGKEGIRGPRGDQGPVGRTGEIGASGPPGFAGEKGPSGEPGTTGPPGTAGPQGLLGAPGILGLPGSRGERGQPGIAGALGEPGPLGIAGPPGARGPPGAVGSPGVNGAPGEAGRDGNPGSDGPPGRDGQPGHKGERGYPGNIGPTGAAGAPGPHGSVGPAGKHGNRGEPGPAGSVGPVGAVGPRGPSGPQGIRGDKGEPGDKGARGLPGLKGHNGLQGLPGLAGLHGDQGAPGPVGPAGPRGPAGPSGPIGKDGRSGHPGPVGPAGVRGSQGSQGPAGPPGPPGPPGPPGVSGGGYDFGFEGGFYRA

Bridge positions count the residues as written; N and C are the ends. Square brackets hold non-standard residues; d marks the D form. Primed or numbered codes have the meaning given here. Ends that are not written are not given here. Glu‑DTPA‑Gd = N-terminal Glu-DTPA-Gd chelate (gadolinium DTPA complex on glutamic acid); Glu‑DTPA‑Gd‑PEG(2O) = not defined here; Gd^T″ = GdDTPA-thiourea; AEEA = NCCOCCOCC(=O)O

T1 sequence (P02452 162-1218 limits assumed, chain 1 of 2): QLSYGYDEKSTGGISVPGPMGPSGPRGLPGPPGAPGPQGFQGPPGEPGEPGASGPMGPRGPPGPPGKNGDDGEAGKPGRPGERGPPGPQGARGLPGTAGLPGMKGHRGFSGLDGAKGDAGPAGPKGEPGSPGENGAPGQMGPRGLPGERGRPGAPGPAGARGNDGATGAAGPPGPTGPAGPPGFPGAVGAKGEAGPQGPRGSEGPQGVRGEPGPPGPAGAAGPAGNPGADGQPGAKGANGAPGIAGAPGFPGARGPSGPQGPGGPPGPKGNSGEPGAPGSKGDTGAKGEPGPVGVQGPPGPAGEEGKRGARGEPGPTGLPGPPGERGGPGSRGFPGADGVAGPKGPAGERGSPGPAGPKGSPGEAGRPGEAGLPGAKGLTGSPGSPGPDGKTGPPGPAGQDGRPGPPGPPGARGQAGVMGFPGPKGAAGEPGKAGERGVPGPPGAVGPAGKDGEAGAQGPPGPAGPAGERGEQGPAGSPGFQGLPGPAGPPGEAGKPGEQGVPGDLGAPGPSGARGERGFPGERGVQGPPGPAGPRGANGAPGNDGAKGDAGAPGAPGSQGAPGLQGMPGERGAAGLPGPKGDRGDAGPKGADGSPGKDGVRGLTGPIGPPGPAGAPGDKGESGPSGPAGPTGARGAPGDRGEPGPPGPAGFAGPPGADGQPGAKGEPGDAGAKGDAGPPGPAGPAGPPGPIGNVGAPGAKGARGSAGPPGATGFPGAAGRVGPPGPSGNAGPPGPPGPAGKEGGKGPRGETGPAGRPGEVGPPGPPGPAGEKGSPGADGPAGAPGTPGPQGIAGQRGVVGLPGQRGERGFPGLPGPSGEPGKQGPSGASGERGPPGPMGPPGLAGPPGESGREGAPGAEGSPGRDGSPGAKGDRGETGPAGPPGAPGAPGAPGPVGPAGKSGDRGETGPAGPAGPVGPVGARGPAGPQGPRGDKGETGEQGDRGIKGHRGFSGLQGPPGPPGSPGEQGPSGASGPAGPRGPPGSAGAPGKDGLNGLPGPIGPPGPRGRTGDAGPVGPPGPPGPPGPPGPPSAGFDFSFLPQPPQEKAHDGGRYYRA
T1 sequence (P08123 80-1119 limits assumed, chain 2 of 2): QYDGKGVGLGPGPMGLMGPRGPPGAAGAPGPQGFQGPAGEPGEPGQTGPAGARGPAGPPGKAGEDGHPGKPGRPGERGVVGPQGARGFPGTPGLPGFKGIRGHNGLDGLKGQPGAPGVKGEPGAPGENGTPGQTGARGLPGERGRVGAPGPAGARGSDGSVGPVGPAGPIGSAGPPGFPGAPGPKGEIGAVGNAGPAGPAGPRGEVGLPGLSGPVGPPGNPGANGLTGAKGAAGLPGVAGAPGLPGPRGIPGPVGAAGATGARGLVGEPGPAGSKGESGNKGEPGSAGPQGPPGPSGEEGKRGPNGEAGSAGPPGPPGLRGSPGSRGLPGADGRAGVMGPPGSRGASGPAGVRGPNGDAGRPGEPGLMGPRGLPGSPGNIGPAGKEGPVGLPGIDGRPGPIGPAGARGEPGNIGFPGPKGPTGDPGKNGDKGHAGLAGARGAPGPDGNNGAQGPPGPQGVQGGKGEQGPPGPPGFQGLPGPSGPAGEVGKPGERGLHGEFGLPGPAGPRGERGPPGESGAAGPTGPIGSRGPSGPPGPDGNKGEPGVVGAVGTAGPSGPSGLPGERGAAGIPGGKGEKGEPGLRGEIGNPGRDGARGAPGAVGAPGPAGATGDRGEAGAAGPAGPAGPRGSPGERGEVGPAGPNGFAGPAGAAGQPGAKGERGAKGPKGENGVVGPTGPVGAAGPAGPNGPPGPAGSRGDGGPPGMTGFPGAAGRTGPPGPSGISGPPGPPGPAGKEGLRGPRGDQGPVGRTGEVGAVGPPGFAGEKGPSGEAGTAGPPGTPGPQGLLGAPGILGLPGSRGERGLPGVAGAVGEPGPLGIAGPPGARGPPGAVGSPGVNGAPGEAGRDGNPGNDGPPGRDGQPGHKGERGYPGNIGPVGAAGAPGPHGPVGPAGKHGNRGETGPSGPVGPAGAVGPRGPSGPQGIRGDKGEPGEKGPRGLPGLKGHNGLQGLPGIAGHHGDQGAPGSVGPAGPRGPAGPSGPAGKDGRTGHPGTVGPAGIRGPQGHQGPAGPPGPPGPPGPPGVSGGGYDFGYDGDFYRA
Sequence of human collagen type I (acid soluble, extracted from placenta, Sigma C7774) (human) (P02452 162-1218 limits assumed, chain 1 of 2): as the sequence (P02452 162-1218 limits assumed, chain 1 of 2) above
Sequence of human collagen type I (acid soluble, extracted from placenta, Sigma C7774) (human) (P08123 80-1119 limits assumed, chain 2 of 2, further chain): as the sequence (P08123 80-1119 limits assumed, chain 2 of 2) above

Molecule {Gd^T″}-DWTCS[dY]DEYTWHCNYE (disulfide 4-13 (inferred)) [Comp ID 829] came in with a % bound in experiment [1] of 20%.
As for LWTCSMDRNYDWVCGEK (disulfide 4-14 (inferred)) [SEQ ID NO: 82], the “% bound” value in experiment [2] turned out to be 3%.
For SWHCFLENHHWMCSDH (disulfide 4-13 (inferred)) [SEQ ID NO: 68], the % bound in experiment [1] is 5%.
Consider GWTCSQPGANVWNCTMQ (disulfide 4-14 (inferred)) [SEQ ID NO: 85], for which the “% bound” value in experiment [2] was found to be 3%.
FSECVWVNAYQCEYF (disulfide 4-12 (inferred)) [SEQ ID NO: 113] yielded a % bound in experiment [1] of 3%.
As to GWQCSGDASVWNCDWI (disulfide 4-13 (inferred)) [SEQ ID NO: 39], the % bound in experiment [1] was 6%.
In experiment [1], FWTCELDFRQSWYCYDK (disulfide 4-14 (inferred)) [SEQ ID NO: 79] had a % bound of 8%.
Still for that read-out and setting: next, SWYCNNGSYGQWHCEHR (disulfide 4-14 (inferred)) [SEQ ID NO: 80]: 6%.
Consider QWFCEMDEYGKWNCGMM (disulfide 4-14 (inferred)) [SEQ ID NO: 81], for which the “% bound” value in experiment [2] is 3%.
The molecule {Glu‑DTPA‑Gd}-GGDWTCVGDHKTWKCNFH-NH2 (disulfide 6-15 (inferred)) [Compound ID 1023] gave a % bound in experiment [3] of 12%.
In turn, GQWHCTTRFPHHYCAYG (not fully specified; Gd^T-GQWHCTTRFPHHYCAYG) [Comp ID 855] returned a % bound in experiment [1] of 27%.
In experiment [1], GWQCQGTDSLDWKCLYM (disulfide 4-14 (inferred)) [SEQ ID NO: 77] registered a % bound of 12%.
Consider HWSCDLAMDNEWFCSTK (disulfide 4-14 (inferred)) [SEQ ID NO: 84], for which the “% bound” value in experiment [2] was 3%.
Turning to KWECVHTKGEWYCETK (disulfide 4-13 (inferred)) [SEQ ID NO: 65], the % bound in experiment [1] is 7%.
In experiment [1], GWSCHSMDMQWHCDFS (disulfide 4-13 (inferred)) [SEQ ID NO: 67] came in with a % bound of 5%.
The molecule GQWHCTTRFPHHTCLYG (not fully specified; Gd^T-GQWHCTTRFPHHtCLYG) [Comp ID 905] returned a % bound in experiment [1] of 6%.
As for GWSCHGDAADWPCQWS (disulfide 4-13 (inferred)) [SEQ ID NO: 38], the % bound in experiment [1] was determined as 6%.
In experiment [1], GQWHCTTDYPHHYCLYG (not fully specified; Gd^T-GQWHCTTD-Y(3-Cl)-PHHYCLYG) [Comp ID 895] had a % bound of 7%.
For the molecule FGACDIFPTFHTCPGV (disulfide 4-13 (inferred)) [SEQ ID NO: 76], the “% bound” value in experiment [2] is 1%.
Molecule DWTCSGDEYRWHCNYE (not fully specified; Gd^T-DWTCSGDEYRWHCNYE) [Comp ID 845] yielded a % bound in experiment [3] of 10%.
Turning to HWTCDQAKGGAWSCSST (disulfide 4-14 (inferred)) [SEQ ID NO: 87], the “% bound” value in experiment [2] was 1%.
GQWHCTTDFPHXYCLYG (not fully specified; Gd^T-GQWHCTTDFPH-Dpr-YCLYG) [Comp ID 886] showed a % bound in experiment [1] of 8%.
Same read-out and setting: next, SWSCGGDHNAWKCQYS (disulfide 4-13 (inferred)) [SEQ ID NO: 36]: 7%; GQWHCTTRFPHHRCLYG (not fully specified; Gd^T-GQWHCTTRFPHHrCLYG) [Comp ID 902]: 7%.
In experiment [3], {Glu‑DTPA‑Gd‑PEG(2O)}-GQWTCSGDEYTWHCNY[dE]-NH2 (disulfide 5-14 (inferred); reading uncertain) [Compound ID 1026] had a % bound of 5%.
In the case of PWTCSGDEYAWHCNYE (Gd^G-PWTCSGDEYAWHCNYe) [Comp ID 824], the % bound in experiment [1] was found to be 12%.
For the molecule {Gd^T″}-GQWHCTTRFPHHYCLYG[dK](Gd^T″) (disulfide 5-14 (inferred)) [Comp ID 808], the % bound in experiment [1] stood at 25%.
Molecule GQWTCSGDEYTWHCAYE (not fully specified; Gd^T-GQWTCSGDEYTWHCAYE) [Comp ID 839] registered a % bound in experiment [3] of 11%.
In turn, GWQCFGASDWHCTWV (disulfide 4-12 (inferred)) [SEQ ID NO: 8] returned a % bound in experiment [1] of 9%.
On to RWSCVLDADGWVCSDN (disulfide 4-13 (inferred)) [SEQ ID NO: 66], for which the % bound in experiment [1] stood at 6%.
For {Glu‑DTPA‑Gd}-WWGCRQGTGEHWSHCMWF-{AEEA-Glu‑DTPA‑Gd} (cysteine pairing not given here; also: Gd chelated by DTPA at each end) [SEQ ID NO: 195], the % bound in experiment [3] came out at 9%.
In turn, ERNCVLNDFRWTCGGD (disulfide 4-13 (inferred)) [SEQ ID NO: 75] showed a % bound in experiment [1] of 10%.
For SWYCDWDDRKGWMCGSD (disulfide 4-14 (inferred)) [SEQ ID NO: 86], the “% bound” value in experiment [2] was 2%.
LWNCHGTDANWKCVLN (disulfide 4-13 (inferred)) [SEQ ID NO: 37] returned a % bound in experiment [1] of 7%.
Consider PWWCHEMPSMCFGF (disulfide 4-11 (inferred)) [SEQ ID NO: 3], for which the % bound in experiment [1] was 2%.
In experiment [1], WQVCADSPGVITYCYTY (disulfide 4-14 (inferred)) [SEQ ID NO: 98] returned a % bound of 5%.
Regarding GWACNTTSKGDWECTNL (disulfide 4-14 (inferred)) [SEQ ID NO: 83], in experiment [2], the “% bound” value was determined as 3%.
TWACDLDEYGGWQCYTG (disulfide 4-14 (inferred)) [SEQ ID NO: 78] gave a % bound in experiment [1] of 8%.

For the origin of these results see patent US20070293656A1, “COLLAGEN BINDING PEPTIDES” (Epix Pharmaceuticals, Inc., priority 2005, published 2007).
